Source: US20110217317A1 (published 2011)

T1: Rhesus D antigen (human, UniProt Q02161 2-417)
T1 construct: whole, on cells; Presented on RhD-positive erythrocytes in all assays; also called RhD; RhD antigen
T1 sequence (looked up): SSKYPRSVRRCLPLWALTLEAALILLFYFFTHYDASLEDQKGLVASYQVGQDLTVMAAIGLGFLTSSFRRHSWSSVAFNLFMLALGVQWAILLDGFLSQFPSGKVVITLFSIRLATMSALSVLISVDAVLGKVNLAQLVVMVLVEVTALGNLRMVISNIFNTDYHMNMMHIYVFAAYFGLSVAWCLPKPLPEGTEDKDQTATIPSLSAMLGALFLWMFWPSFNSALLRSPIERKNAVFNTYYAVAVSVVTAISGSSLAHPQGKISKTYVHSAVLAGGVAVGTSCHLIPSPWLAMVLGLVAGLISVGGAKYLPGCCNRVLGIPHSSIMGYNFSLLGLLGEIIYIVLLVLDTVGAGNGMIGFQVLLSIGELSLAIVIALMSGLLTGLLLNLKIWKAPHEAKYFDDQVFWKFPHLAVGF


Molecular target: T1, Rhesus D antigen
Assay: agglutination assay, Fab on RhD(+)/RhD(-) RBC mix
Description: After each round of panning single colonies were picked for analysis of their binding properties to red blood cells in agglutination assays. Briefly, single colonies were inoculated into 2×YT/100 μg/mL carbenicillin/1% glucose and shaken overnight at 37° C. The next day, DeepWell plates were inoculated using 900 μl 2×YT/100 μg/mL carbenicillin/0.1% glucose and 10 μl overnight culture. The plates were shaken for two hours at 37° C., before Fab induction was performed with addition of 300 μl 2×YT/100 μg/mL carbenicillin/0.25 mM IPTG per well. The plate was shaken overnight at 30° C. The following day, the bacteria were pelleted by centrifugation (3200×g, 4° C., 10 minutes), and re-suspended in 100 μl of 0.8 M NaCl, 0.2×PBS, 8 mM EDTA, and incubated for 15 minutes on ice in order to perform a periplasmic extraction of the Fab fragments. The plate was transferred to −20° C. and finally the suspension was thawed and centrifugation was performed for 10 minutes at 4° C. and 3200×g. The periplasmic extract was used in ELISA assays for analysis of Fab content and in agglutination assays to evaluate the binding potential of the individual Fab fragments. The agglutination assay was performed as follows: RhD(−) and RhD(+) RBC were mixed in a 1:1 ratio, and washed 3 times in PBS. After the final wash, the cell mix was re-suspended in 1% BSA in PBS at a density of 1% cells, 50 μl was added to each well of a 96-plate. Periplasmic extracts were added to the wells. As a positive control Rhesogamma P immunoglobulin (Aventis) was used according to the manufacturer's instructions. The plates were incubated for one hour at room temperature with gentle shaking. The cells were washed three times with PBS, before the secondary antibody was added (goat anti-human Fab/FITC conjugate, Sigma F5512) in a 1:100 dilution. The plates were left for agglutination for one hour at room temperature without shaking. Fab fragments positive in the agglutination assay was determined by visual inspection, and recorded by taking a picture. Quantization of the binding activity of the Fab fragments was performed by FACS analysis of the agglutination samples.

Row | Binder | binding result
1 | RhD158.119B06 (Fab, V domains shown, Tested as Fab (periplasmic extract)) VH: EVQLVETGGGVVQPGRSLRLSCAASGFSFSNFGFHWIRQSPGKGLEWVAVIWYDGSNRFYADSVKGRFTISRDSSKNMLFLQMDSLRAEDTAVYYCAREISMKVVIRRHYVMDVWGHGTTVTVSS VL: DIQMTQSPSPLSASVGDRVSITCRASRGISNSLAWYQQKPGKVPKLLIYAASTLQSGVPSRFSGGGSGTDFTLTISSLQPEDVATYYCHTYNSAPFAFGPGTKVDIKR | binds
2 | RhD204.128A03 (Fab, V domains shown, Tested as Fab (periplasmic extract); lambda clone) VH: EVQLVESGGGVVQPGRSLRLSCAASGFSFSNYGMHWVRQAPGKGLEWVAVISYDGSEKYYADSVKGRFTISRDNSKKALYLQMNSLRAEDTAMYYCKNKVGATRRAVVAFDIWGQGTTVTVSS VL: LSSELTQDPAVSVALGQTVRITCQGDSLRSYYANWYQQKPGQAPLSVIYGKNNRPSGIPDRFSGSNSGNTAFLTITGTQAEDEADYYCNSRDSSGNYRELFGGGTKLTVLG | binds
3 | RhD202.158E07 (Fab, V domains shown, Tested as Fab (periplasmic extract)) VH: QVQLVESGGGVVQPGRSLRLSCAASGFTFSSYGMHWVRQAPGKGLEWVAVIWFDGSNRYYGDSVKGRVTISRDNSKNTLYLRMNSLRAEDTAVYYCAREFYTRSGLWSQGYSYYMDVWGKGTTVTVSS VL: EIVLTQSPGTLSLSPGERATLSCRASQSVSSSYLAWYQHKPGQAPRLLIYGSSNRATGIPDRFSGSGSGTDFTVTISRLEPEDFAVYYCQQYGTAPYTFGQGTKLEIKR | binds
4 | RhD298.126E10 (Fab, V domains shown, Tested as Fab (periplasmic extract)) VH: QVQLVESGGGVVQPGRSLRLSCAASGFTFSSYGMHWVRQAPGKGLEWVAVIWYDGSNKYYADSVKGRFTISRDNSKNTLYLQMNSVRAEDTAVYYCARDLSTQRGYSRYYYVMDVWGQGTTVTVSS VL: DIQMTQSPSSLSASVGDRVTITCRASQSISTYLNWYQQKPGKAPKLLISAASSLQSGVPSRFSGSGSGTDFTLTISSLQREDYAAYYCQQSYSTPPYTFGQGTKLEIKR | binds
5 | RhD199.164E03 (Fab, V domains shown, Tested as Fab (periplasmic extract)) VH: QVQLVESGGGVVQPGRSLRLSCAASGFTFSSYGMHWVRQAPGKGLEWVAVIWYDGSNKYYADSVKGRFTISRDNSKNTLHLQMNSLRAEDTAVYYCAREVGFGSGWSRYYYGMDVWGQGTTVTVSS VL: not shown | binds
6 | RhD239.126F09 (Fab, V domains shown, Tested as Fab (periplasmic extract)) VH: QVQLVESGGGVVQPGTSLRLSCAASGFTFRTYGMHWVRQAPGKGLEWVAYIWYDGSNKYYADSVKGRFTISRDNSKSTLNLQMNSLRAEDTAVYYCAREIASRGYSRYLYYFDSWGQGTLVTVSS VL: DIQLTQSPSSLSASVGDRVTITCRASQSISSYLNWYQQKPGKAPKLLISAASSLQSGVPSRFSGSGSGTDFTLTISSLQREDYATYYCQQSYSTPPYTFGQGTKLEIKR | binds
7 | RhD196.126H11 (Fab, V domains shown, Tested as Fab (periplasmic extract)) VH: QVQLVESGGGVVQPGRSLRLSCAASGFTFSSYGMHWVRQAPGKGLEWVAVIWYDGSNKDYADSVKGRFTISRDNSKNTLYLQMNSVRAEDTAVYYCARELSTQRGYSRYHYVMDVWGQGTTVTVSS VL: DIQMTQSPSSLSASVGDRVTITCRASQSISTYLNWYQQKPGKAPKLLIYAASTLQSGVPSRFSGSGSGTHFTLTISSLQREDFATYYCQQSYGTPTWTFGQGTKVEIKR | binds
8 | RhD198.127F10 (Fab, V domains shown, Tested as Fab (periplasmic extract)) VH: QVQLVQSGGGVVQPGKSLRLSCAASGFTFSTYGMHWVRQAPGKGLEWVAVIWYDGSNKYYADSVKGRFTISRDTSKNTLYLQMNSVRVEDTAVYYCARDLTTQRGYSRYHYVMDVWGQGTTVTVSS VL: DIQMTQSPSSLSASVGDRVTITCRASQSIGNYLNWYQQKPGKAPKLLISAASSLQSGVPSRFSGSGSGTDFTLTISSLHREDYATYYCQQSYSTPPYTFGQGTKLEIKR | binds
9 | RhD205.160B12 (Fab, V domains shown, Tested as Fab (periplasmic extract)) VH: EVQLVETGGGLVKPGGSLRLSCAASGFTFRSYSMNWVRQAPGKGLEWVSSIGSSSTYTYSADSVKGRFTISRDNAKNSLYLQMNSLRAEDTAVYYCARGEPLNYDYIWGGYRFTIHWGQGTLVTVSS VL: DIQLTQSPSFLSASVGDRVTITCRASHGISSYLAWYQQKPGKAPNLLIFPASTLQSGVPSRFSGSGSGTEFTLTISSLRPEDFATYYCQQLNSYSRWAFGQGTKVEVKR | binds
10 | RhD203.179F07 (Fab, V domains shown, Tested as Fab (periplasmic extract)) VH: EVQLVESGGGVVQPGRSLRLSCAASGFTFSNYGMHWVRQAPGKGLEWVAVIWYDGSNKYYADSVKGRFTISRDNSKNTLYLQMNSLRAEDTAVYYCAREMVSYSSSWYRRYYYYVMDVWGKGTTVTVSS VL: QSALTQPASVSGSPGQSITISCTATSSDIGAYNYVSWYQHHPGKAPKVIITDVNKRPSGVPDRFSGSKSGNTASLTISGLQPEDEAEYSCCSYAGTYSYVFGTGTKVTVLS | binds
11 | RhD208.179B11 (Fab, V domains shown, Tested as Fab (periplasmic extract)) VH: EVQLVESGGGVVQPGRSLRLSCAASGFTFRTSAMHWVRQAPGKGLEWVAVIWYDGSNKYYADSVKGRFTISRDNSKNTLYLQMNSLRAEDTAVYYCAREMVSYSSSWYRRYYYYNMDVWGKGTTVTVSS VL: QAVVTQEPSLTVSPGGTVTLTCASSTGSVTSGYYPNWFQQKPGQAPRPLISGTSNKLSWTPARFSGSLLGGKAALTVSGVQPEDEAVYYCLLYYGVPQPVVFGGGTKLTVLG | binds
12 | RhD157.119D11 (Fab, V domains shown, Tested as Fab (periplasmic extract)) VH: EVQLVESGGGLVQPGGSLRLSCVASGFTFRSFDMNWVRQAPGKGLEWVSYINSRGSTIYYADSVKGRFTISRENAKNSLYLQMNSLRAEDTAVYYCARDLYGDYDPKSYYYYGMGVWGQGTTVTVSS VL: EIVLTQSPATLSLSPGERATLSCRASQSVSSYLAWYQQKRGQAPRLLIFNASNRATGIPARFSGSGSGTDFTLTISSLEPEDFAVYYCQQRSSWPPMYTFGQGTKLEIKR | binds
13 | RhD200.164G10 (Fab, V domains shown, Tested as Fab (periplasmic extract)) VH: VQLVESGGGGVVQPGRSLRLSCAASGFTFSSYGMHWVRQAPGKGLEWVAVIWYDGSNKYYADSVKGRFTISRDNSKNTLYLQMNSLRAEDTAVYYCARESTLYSSSWYRRYYYYGMDVWGQGTTVTVSS VL: not shown | binds
14 | RhD201.164H12 (Fab, V domains shown, Tested as Fab (periplasmic extract)) VH: QVQLVESGGGVVQPGRSLRLSCAASGFTFSSYAMHWVRQAPGKGLEWVAVISYDGSNKYYADSVKGRFTISRDNSKNTLYLQMNSLRAEDTAVYYCARESTLYSSSWYRRYYYYSMDVWGQGTTVTVSS VL: EIVLTQSPATLSVSPGERATLSCRASQSVTSNLAWYQQKPGQAPRLLIYGASTRATGVPARFSGSGSGTEFSLTISSLQSEDFAVYYCQQYNNWPPIFTFGPGTKLDIKR | binds
15 | RhD206.160C06 (Fab, V domains shown, Tested as Fab (periplasmic extract)) VH: QVQLVESGGGVVQPGRSLRLSCAASGFTFSSYGMHWVRQAPGKGLEWVAIIWFDGSNKYYADSVKGRFTISRDNSKNTLYLQINSLRAEDTAVYYCAKEHGYYSSSWYRNYYYYAMDVWGQGTTVTVSS VL: DIQMTQSPSSLSASVGDRVTITCRASQSIRRYLNWYQKKPGKAPKLLIYAASSLQSGVPSRFSGSGSGTDFTLTISSLQPEDFATYYCQQSYRTQGLTFGGGTKVEIKR | binds
16 | RhD240.125A09 (Fab, V domains shown, Tested as Fab (periplasmic extract)) VH: QLQLQESGPGLVKPSGTLSLTCAVSGGSMRSSNWWTWVRQPPGKGLEWIGEIHHGGSTNYNPSLQSRVTISVDKSKNRFSLKLSSVTAADTAVYHCARGRSYYDSSGHSFRGLVPFDIWGQGTMVTVSS VL: DIQMTQSPSTLSASVGDRVTITCRASQSISSWLAWYQQKPGKAPKLLVYKTSSLEGGVPSRFSGSGSGTEFSLTIFRLQSDDFATYYCQQYNSFPYTFGQGTKLEFTR | binds
17 | RhD195.127A07 (Fab, V domains shown, Tested as Fab (periplasmic extract)) VH: QVQLQESGPGLVKPSQTLSLTCTVSGGSISSGSYYWSWIRQPAGKGPEWIGRIYTSGSTNYNPSLKSRLTISVDTSKNQFSLKLTSVTAADTAVYYCARAPSYYDSSGYRYWYIDLWGRGTLVTVSS VL: DIQLTQSPSSLSASVGDRVTITCRASQNINRYLNWYQHKPGRAPELLIYAASTLRRGVPSRFSGSGSGTDFTLTISSLQPEDFATYYCQQSYSRGTFGQGTKVEIKR | binds
